Test results reported in patent US8242083B2, “Kinase substrates” (PerkinElmer Health Sciences, Inc., priority 2008, dated 2012).

Experiments:
Format in all cases: biochemical
ZAP70 = biological target: T1, ZAP70 (Homo sapiens, UniProt P43403); test: TR-FRET kinase assay, ZAP70; conditions: Kinase Concentration 4 nM; 50 nM ULight-labeled substrate, 200 micromolar ATP, 2 hours
T1 sequence (P43403 1-619): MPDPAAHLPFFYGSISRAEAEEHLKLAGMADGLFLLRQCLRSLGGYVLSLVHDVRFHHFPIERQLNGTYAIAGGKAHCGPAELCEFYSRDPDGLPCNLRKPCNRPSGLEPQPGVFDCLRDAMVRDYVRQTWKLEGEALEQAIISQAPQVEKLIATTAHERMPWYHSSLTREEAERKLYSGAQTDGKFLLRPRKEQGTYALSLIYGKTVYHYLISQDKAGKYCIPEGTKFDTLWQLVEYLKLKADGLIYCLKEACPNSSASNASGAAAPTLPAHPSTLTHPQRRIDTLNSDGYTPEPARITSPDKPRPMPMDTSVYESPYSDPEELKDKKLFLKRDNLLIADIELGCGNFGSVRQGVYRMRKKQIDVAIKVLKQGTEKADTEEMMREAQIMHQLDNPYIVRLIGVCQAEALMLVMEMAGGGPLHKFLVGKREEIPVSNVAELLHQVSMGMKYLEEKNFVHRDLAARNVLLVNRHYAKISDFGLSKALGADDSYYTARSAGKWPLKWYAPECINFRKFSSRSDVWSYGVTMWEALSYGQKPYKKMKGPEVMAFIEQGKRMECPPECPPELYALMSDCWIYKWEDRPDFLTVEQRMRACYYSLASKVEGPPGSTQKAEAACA
Experimental: (§1) TR-FRET kinase assays are performed under standardized conditions: various individual kinases are incubated with 50 nM of kinase substrate BRB1 labeled with the TR-FRET acceptor dye ULight (PerkinElmer) and 200 micromolar ATP in 10 μL of kinase assay buffer (50 mM HEPES pH7.5, 10 mM MgCl2, 3 mM MnCl2, 1 mM EGTA, 2 mM DTT and 0.01% Tween-20) for 2 hours at room temperature. Reactions are stopped with EDTA, and anti-phospho-tyrosine antibodies (clone PT66) labeled with the TR-FRET europium chelate donor dye are added to a final concentration of 2 nM in a final volume of 20 μL. The TR-FRET signal emitted at 665 nm is read one hour after the addition of antibodies using a TR-FRET plate reader such as the Envision® Multilabel Plate reader (PerkinElmer). The emitted signal at 665 nm is proportional to the extent of peptide phosphorylation, Control reactions indicative of background are performed excluding ATP from the reaction.
(§2) Assay conditions are identical to those used described for FIG. 1.

KIT = KIT (Homo sapiens, UniProt P10721); test: TR-FRET kinase assay, KIT; conditions: Kinase Concentration 2 nM; 50 nM ULight-labeled substrate, 200 micromolar ATP, 2 hours
Experimental: as §1, §2

TYRO3 = biological target: T2, TYRO3 (Homo sapiens, UniProt Q06418); test: TR-FRET kinase assay, TYRO3; conditions: Kinase Concentration 0.25 nM; 50 nM ULight-labeled substrate, 200 micromolar ATP, 2 hours
T2 sequence (Q06418 41-890): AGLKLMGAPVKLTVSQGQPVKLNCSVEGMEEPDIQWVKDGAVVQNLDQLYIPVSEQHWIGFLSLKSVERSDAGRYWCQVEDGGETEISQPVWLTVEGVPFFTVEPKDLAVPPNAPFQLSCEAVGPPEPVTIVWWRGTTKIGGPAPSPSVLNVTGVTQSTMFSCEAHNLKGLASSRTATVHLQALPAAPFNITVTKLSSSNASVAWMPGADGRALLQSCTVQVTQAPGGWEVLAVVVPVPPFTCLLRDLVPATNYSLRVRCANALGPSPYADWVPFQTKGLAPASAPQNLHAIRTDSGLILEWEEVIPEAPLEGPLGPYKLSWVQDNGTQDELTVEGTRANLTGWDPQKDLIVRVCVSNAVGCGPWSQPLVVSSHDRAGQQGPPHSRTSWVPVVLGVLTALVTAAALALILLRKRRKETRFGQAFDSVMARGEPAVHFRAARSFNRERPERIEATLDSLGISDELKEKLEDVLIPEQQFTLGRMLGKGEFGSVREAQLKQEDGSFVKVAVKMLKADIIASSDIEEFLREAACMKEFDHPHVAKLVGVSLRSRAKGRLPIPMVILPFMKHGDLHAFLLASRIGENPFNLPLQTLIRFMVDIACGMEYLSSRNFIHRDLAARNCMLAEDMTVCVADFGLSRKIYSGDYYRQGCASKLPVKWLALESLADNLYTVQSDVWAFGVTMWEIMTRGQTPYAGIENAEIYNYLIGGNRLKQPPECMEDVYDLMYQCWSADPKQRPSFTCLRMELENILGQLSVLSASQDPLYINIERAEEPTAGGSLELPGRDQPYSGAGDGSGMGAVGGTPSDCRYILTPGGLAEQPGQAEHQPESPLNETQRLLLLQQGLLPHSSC
Experimental: as §1, §2

CSK = CSK (Homo sapiens, UniProt P41240); test: TR-FRET kinase assay, CSK; conditions: Kinase Concentration 20 nM; 50 nM ULight-labeled substrate, 200 micromolar ATP, 2 hours
Experimental: as §1, §2

ACK = ACK (Homo sapiens, UniProt Q07912); test: TR-FRET kinase assay, ACK; conditions: Kinase Concentration 20 nM; 50 nM ULight-labeled substrate, 200 micromolar ATP, 2 hours
Experimental: as §1, §2

Chain of CSK (P41240 whole entry, species assumed): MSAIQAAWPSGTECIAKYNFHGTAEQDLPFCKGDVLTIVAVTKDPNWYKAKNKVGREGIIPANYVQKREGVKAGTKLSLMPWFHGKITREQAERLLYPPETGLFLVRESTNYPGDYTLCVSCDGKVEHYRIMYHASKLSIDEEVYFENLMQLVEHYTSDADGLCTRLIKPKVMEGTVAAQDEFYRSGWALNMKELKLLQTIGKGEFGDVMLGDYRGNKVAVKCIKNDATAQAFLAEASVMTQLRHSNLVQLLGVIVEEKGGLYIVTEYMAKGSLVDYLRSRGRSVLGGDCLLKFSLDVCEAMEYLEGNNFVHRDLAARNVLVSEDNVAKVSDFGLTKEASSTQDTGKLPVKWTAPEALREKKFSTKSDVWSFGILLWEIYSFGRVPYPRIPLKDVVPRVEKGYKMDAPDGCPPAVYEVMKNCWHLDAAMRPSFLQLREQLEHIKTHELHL
Chain of ACK (Q07912 whole entry): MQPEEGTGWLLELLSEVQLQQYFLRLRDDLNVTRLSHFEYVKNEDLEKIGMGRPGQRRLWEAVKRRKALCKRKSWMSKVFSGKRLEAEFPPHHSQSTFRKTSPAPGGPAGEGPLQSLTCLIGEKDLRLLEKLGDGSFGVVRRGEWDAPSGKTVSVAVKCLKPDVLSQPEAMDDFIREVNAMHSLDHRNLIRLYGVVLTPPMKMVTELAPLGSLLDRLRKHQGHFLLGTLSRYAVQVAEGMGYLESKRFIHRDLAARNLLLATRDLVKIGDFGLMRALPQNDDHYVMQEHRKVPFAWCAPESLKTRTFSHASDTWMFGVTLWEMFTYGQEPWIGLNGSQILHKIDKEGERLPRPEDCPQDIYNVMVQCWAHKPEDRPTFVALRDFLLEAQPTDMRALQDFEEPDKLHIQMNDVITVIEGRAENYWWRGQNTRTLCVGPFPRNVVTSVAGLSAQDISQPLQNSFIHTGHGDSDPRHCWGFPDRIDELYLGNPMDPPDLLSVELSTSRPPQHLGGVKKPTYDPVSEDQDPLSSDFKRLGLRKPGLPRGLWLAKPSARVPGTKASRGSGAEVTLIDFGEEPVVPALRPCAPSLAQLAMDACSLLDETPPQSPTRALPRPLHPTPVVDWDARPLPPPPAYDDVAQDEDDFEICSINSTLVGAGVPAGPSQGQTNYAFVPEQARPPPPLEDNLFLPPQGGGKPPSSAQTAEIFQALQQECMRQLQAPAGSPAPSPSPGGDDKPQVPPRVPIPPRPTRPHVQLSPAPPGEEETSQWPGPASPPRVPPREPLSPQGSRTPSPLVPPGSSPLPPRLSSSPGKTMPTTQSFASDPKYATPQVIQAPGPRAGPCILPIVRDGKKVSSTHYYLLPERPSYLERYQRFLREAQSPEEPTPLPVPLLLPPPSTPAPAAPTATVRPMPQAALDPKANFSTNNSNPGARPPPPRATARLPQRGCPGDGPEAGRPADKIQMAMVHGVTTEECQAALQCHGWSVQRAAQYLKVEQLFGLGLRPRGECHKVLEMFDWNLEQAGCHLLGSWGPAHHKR

C AYE AYE AYE K EYA EYA EYA K AYA EYE R (CAYEAYEAYEKEYAEYAEYAKAYAEYER; tyrosine kinase substrate peptide) [BRB1]
Signal to Noise ratio with BRB1 Peptide (ZAP70): 7.6
Signal to Noise ratio with BRB1 Peptide (KIT): 1.5
Signal to Noise ratio with BRB1 Peptide (TYRO3): 6.1
Signal to Noise ratio with BRB1 Peptide (CSK): 27.2
Signal to Noise ratio with BRB1 Peptide (ACK): 17.3
